Literature values as cited in patent US12065466B2, “Methods and compositions for protein sequencing” (Quantum-Si Incorporated, priority 2020, dated 2024).

B1: PS533: UBR-box domain homolog, SEQ ID NO: 161 (protein, listed as Contarinia nasturtii)
chain: MVCGRVFKMNEPFYSCRECGMDPTCVLCVNCFKQSAHRHHKYKMGTSAGGGCCDCGDNEAWKQDHYCDEHTK
B2: PS534: UBR-box domain homolog, SEQ ID NO: 162 (protein)
chain: MKCGHIFRKGEVFYRCKTCSVDSNSALCVKCFRATSHKDHETSFTVSAGSGGCCDCGNAAAWIGDVSCKIHSH
modifications: Schizosaccharomyces pombe
B3: PS536: UBR-box domain homolog, SEQ ID NO: 164 (protein, listed as Aphis gossypii)
chain: MVCGRVFKMGEPTYNCRECGMDSTCVLCVDCFKRSPHKNHKYKMGTSYGGGCCDCGDVEAWKHDPYCQTHKL
B4: PS537: UBR-box domain homolog, SEQ ID NO: 165 (protein, listed as Aedes aegypti)
chain: MVCGRVFKIGEPTYSCRECSMDPTCVLCSSCFKKSSHRLHKYKMSTSGGGGCCDCGDHEAWKRDPSCEEHAV
B5: PS25: SEQ ID NO: 167 (protein, listed as Saccharomyces cerevisiae)
chain: MGSVHKHTGRNCGRKFKIGEPLYRCHECGCDDTCVLCIHCFNPKDHVNHHVCTDICTEFTSGICDCGDEEAWNSPLHCKAEEQ
B6: PS539: UBR-box domain homolog, SEQ ID NO: 168 (protein, listed as Kazachstania africana)
chain: MQTSFTHKGRNCGRKFKVGEPLYRCHECGFDDTCVLCIHCFNPADHENHHIYTDICNDFTSGICDCGDTEAWNGDLHCKAEEI
B7: PS540: UBR-box domain homolog, SEQ ID NO: 169 (protein, listed as Clathrospora elynae)
chain: MPCGHIFKNGEATYRCKTCTADDTCVLCARCFDASDHEGHQVFVSVSPGNSGCCDCGDDEAWVRPVHCNMHSA
B8: PS541: UBR-box domain homolog, SEQ ID NO: 170 (protein)
chain: MRCGHIFRAGEATYRCITCAADDTCVLCSRCFDASDHTGHQYQISLSSGNCGCCDCGDEEAWRLPLFCAIHTD
modifications: Aspergillus neoniger
B9: PS542: UBR-box domain homolog, SEQ ID NO: 171 (protein, listed as Trichuris suis)
chain: MRCNHVFANGEATYSCRGCAADPTCVLCASCFELSAHKEHKYMITTSSGTGYCDCGDPEAWKADPFCQQHQP
B10: PS543: UBR-box domain homolog, SEQ ID NO: 172 (protein, listed as Trichinella spiralis)
chain: MKCNRQLICGEPTYCCLDCACDQTCIFCHACFQSSEHKNHRYSMSTSEGSGTCDCGDKEAWKSNYYCLNHKP
B11: PS544: UBR-box domain homolog, SEQ ID NO: 173 (protein, listed as Homo sapiens)
chain: MGPLGSLCGRVFKSGETTYSCRDCAIDPTCVLCMDCFQDSVHKNHRYKMHTSTGGGFCDCGDTEAWKTGPFCVNHEP
B12: Homo sapiens UBR2: SEQ ID NO: 174 (protein, listed as Homo sapiens)
chain: MGPLGSLCGRVFKVGEPTYSCRDCAVDPTCVLCMECFLGSIHRDHRYRMTTSGGGGFCDCGDTEAWKEGPYCQKHE
B13: PS615: UBR-box domain homolog, SEQ ID NO: 175 (protein, listed as Kluyveromyces marxianus)
chain: MVNEHRGSQCSKQCHGTETVYYCFDCTKNPLYEICEECFDETQHMGHRYTSRVVTRPEGKVCHCGDISGYNNPEKAFQCKI
B14: PS616: UBR-box domain homolog, SEQ ID NO: 176 (protein, listed as Kluyveromyces lactis)
chain: MHNDHRGSQCSKQCHGTETVYYCFDCTKNPLYEICEDCFDESQHIGHRYTSRVVTRPEGKVCHCGDISSYNDPKKAFQCRI
B15: PS617: UBR-box domain homolog, SEQ ID NO: 177 (protein, listed as Eremothecium sinecaudum)
chain: MPKEHRGTSCNKHCQPTETVYYCFDCTKNPLYEICEECFDADKHLGHRWTSKVVSRPEGKICHCGDPSGLTDPENGYECKN
B16: PS618: UBR-box domain homolog, SEQ ID NO: 178 (protein, listed as Zygosaccharomyces bailii)
chain: MNASHKGAMCSKQCYPTETVFYCFTCTTNPLYEICESCFDEEKHRGHLYTAKVVVRPEGRVCHCGDPFVFKEPRFAFLCKN
B17: PS619: UBR-box domain homolog, SEQ ID NO: 179 (protein, listed as Vanderwaltozyma polyspora)
chain: MENLHIGSCCNRQCYPTQTVYYCLTCTINPLYEICELCFDEDKHVGHTYISKSVIRPEGKVCHCGNPNVFKKPEFAFNCKN
B18: PS620: UBR-box domain homolog, SEQ ID NO: 180 (protein, listed as Saccharomyces cerevisiae)
chain: MGNMHIGTACTRLCFPSETIYYCFTCSTNPLYEICELCFDKEKHVNHSYVAKVVMRPEGRICHCGDPFAFNDPSDAFKCKN
B19: PS622: UBR-box domain homolog, SEQ ID NO: 182 (protein, listed as Kluyveromyces dobzhanskii)
chain: MHSRFNHAGRICASKFKVGEPIYRCKECSFDDTCVICVNCFNPKDHVGHHVYTSICSEFNNGICDCGDTEAWNHDMHCKADEN
B20: PS623: UBR-box domain homolog, SEQ ID NO: 183 (protein, listed as Kazachstania naganishii)
chain: MSKQFRHKGRNCGRKFRLGEPLYRCQECGYDDTCVLCINCFNPKDHEGHHIYTDICNDFTSGICDCGDEEAWLSPLHCKAEED
B21: PS624: UBR-box domain homolog, SEQ ID NO: 184 (protein, listed as Eremothecium sinecaudum)
chain: MPKNHNHKGRNCGRSFQPGEPLYRCQECAYDDTCVLCIRCFNPLDHVNHHVSTHICSEFNDGICDCGDVEAWNVELNCKAEED
B22: PS625: UBR-box domain homolog, SEQ ID NO: 185 (protein, listed as Saccharomyces eubayanus)
chain: MGDVHKHTGRNCGRKFKIGEPLYRCHECGCDDTCVLCIHCFNPKDHINHHVCTDICSEFTSGICDCGDEEAWNSSLHCKAEEQ
B23: PS626: UBR-box domain homolog, SEQ ID NO: 186 (protein, listed as Zygosaccharomyces parabailii)
chain: MYHVYKHSGRNCGRKFKVGEPIYRCHECGYDETCVLCIHCFNPKDHDSHHVYIDICSEFSTGICDCGDTEAFVNPLHCKAEED
B24: PS627: UBR-box domain homolog, SEQ ID NO: 187 (protein, listed as Zygosaccharomyces mellis)
chain: MPKYHQHSGRYCGRKFKVGEPIYRCHECGFDETCVICIHCFNAKDHETHHVSVSICSEYSTGICDCGDTEAFVNPLHCRAEEV
B25: PS628: UBR-box domain homolog, SEQ ID NO: 188 (protein)
chain: MSHRAYHKNSPCGRIFRKGEPIHRCLTCGFDDTCALCSHCFQPEYHEGHKVHIGICQRENGGVCDCGDPEAWTQELFCPYAVD
modifications: Candida albicans
B26: PS629: UBR-box domain homolog, SEQ ID NO: 189 (protein, listed as Pichia pastoris)
chain: MCPNYKHHGRPCARQFKQGEPIYRCYECGFDETCVMCMHCFNREQHRDHEVSISIASSSNDGICDCGDPQAWNIELHCQSELD
B27: H. sapiens Fyn SH2 domain: SEQ ID NO: 116 (protein, listed as Homo sapiens)
chain: MGAMDSIQAEEWYFGKLGRKDAERQLLSFGNPRGTFLIRESETTKGAYSLSIRDWDDMKGDHVKHYKIRKLDNGGYYITTRAQFETLQQLVQHYSERAAGLSSRLVVPSHK
B28: Escherichia coli leucyl/phenylalanyl-tRNA-protein transferase: amino acid recognition protein, SEQ ID NO: 111 (protein, listed as Escherichia coli)
chain: MRLVQLSRHSIAFPSPEGALREPNGLLALGGDLSPARLLMAYQRGIFPWFSPGDPILWWSPDPRAVLWPESLHISRSMKRFHKRSPYRVTMNYAFGQVIEGCASDREEGTWITRGVVEAYHRLHELGHAHSIEVWREDELVGGMYGVAQGTLFCGESMFSRMENASKTALLVFCEEFIGHGGKLIDCQVLNDHTASLGACEIPRRDYLNYLNQMRLGRLPNNFWVPRCLFSPQELE

Test system: amino acid at a terminal position of a polypeptide
Conditions: Table 2; amino acid identity at a terminal position (phosphotyrosine also internal); inferred from literature and/or demonstrated by the inventors; cited from earlier work

Molecule | Binding Pref.
B1 | K, R, H
B2 | K, R, H
B3 | K, R, H
B4 | K, R, H
B5 | K, R, H
B6 | K, R, H
B7 | K, R, H
B8 | K, R, H
B9 | K, R, H
B10 | K, R, H
B11 | K, R, H
B12 | K, R, H
B13 | K, R, H
B14 | K, R, H
B15 | K, R, H
B16 | K, R, H
B17 | K, R, H
B18 | K, R, H
B19 | K, R, H
B20 | K, R, H
B21 | K, R, H
B22 | K, R, H
B23 | K, R, H
B24 | K, R, H
B25 | K, R, H
B26 | K, R, H
B27 | phospho-Y
B28 | K, R
